Sequences and labels used below:
B2: Cj-DLP1 (natural protein, Campylobacter jejuni, UniProt A0A0H3PJL7 1-728, looked up)
chain: MKELFQKIWQNELQFLNFDAKFQDKSKLDTAECAIILSVNKDNYERYFLLKEFQELCKKIDLRVDIFSMQNAQICILNLFKSGFISKQDLLKALKILEKISKNTEIFDFILQEKVQSIDQKALFQNDFKELNTINLELQKLSFDENLKSRLQKTLEKFQNLEFNIAITGVMNAGKSSLLNALLKEDFLGVSNIPETANLTVLSYGKSEEAKIYFWDKKEWQNILESSHFNADLKEFIDKLDKSVNIEDFIKDKPLIQNIALCELKNFSSAKNKISALIKKIEIKSHLEFLKNNISIVDTPGLDDVVVQREIVTNEYLRESDFLIHLMNASQSLTQKDADFLVHCLLNSRLSKFLIVLTKADLLSKKDLEEVIVYTKESLKSRLVDLDENLVEKIDFLCVSAKMASDFYKGLASKESLQKSGMQEFENYLFNELYAGEKSKIALRAYKKELHLELKNILSEYEMQNRLIKENKQGVSEENQKLLLELQKQNTLLKEAQDEISNSIAKLKNIDSGIDNLVLLLAKKLKERLIDEFKYLKNNAQKLNLSRILNIVDITTKDGINDILREIKFENIKKIEELKTNLSLKYDFLKDDFDNGFEGFKDGISKNIDSIFQSEKFALLRLKIEKLSNLKSDLYELETNLDTVIFDTFKEFKMSEILNSLNINGAFFEFLNDKLKHYEKNQKSKLESLEKVLQSLKNQDANILNSFEENLEKIEKLKQLEMGLLNAD
notes: Cj-DLP1, dynamin-like protein of Campylobacter jejuni, gene cj0411, full-length protein, 84.5 kDa; Monomer alone; Two copies stand in the 2:2 tetramer with Cj-DLP2; also called cj0411; CJ0411; source: E. coli BL21 (DE3), purified (HisTrap, gel filtration)
B3: Cj-DLP2 (natural protein, Campylobacter jejuni)
chain: MQINLLNDFIKAYENTYSVSFDDSFKGRIQELCKELNEPFMHASYALENELKELVFSLDKNVNIAIIGQFSSGKSSLLNLILGRDCLPTGVVPVTFKPTFLRYAKEYFLRVEFEDGSDIITNIEKLAFYTDQRNEVKQAKSLHIFAPIPLLEKITLVDTPGLNANENDTLTTLDELKNIHGAIWLSLIDNAGKKSEEDAIKANLELLGENSICVLNQKDKLSAEELDNVLNYAKSVFLKYFNELIAISCKEAKDEQSYEKSNFQSLLDFLTQLDTTVLKEKFVKRKILNLCEILEDENQLFVGIFDRLLNQFQSYEKHLLLAYENFLKEIEILNHQILEQLKSISERISSEIFASVKEKDAYFYKESKGFLKKDLYTRYDYKAPYISSDDAFLAMFYNSDVMSKEFKKIKNELYKSFEEIKMKLKDFINILEREILLFKAEFSNIQKDHIFQSDKNFSELRAFCNASDEYFLKDFKELLFKSILELDLFFEKLNLKAFTNYENATKLSLAFFSRKINESRVLYELDSSEFVLFYPKKSEIYERVLNELNVYEFETLLINKPILTKIAKNFLEQSQNLIQEKNKFLDLKKAELQKRRAQILNVRESIKED
notes: Cj-DLP2, dynamin-like protein of Campylobacter jejuni, gene cj0412, 71.2 kDa; Monomer alone; Two copies stand in the 2:2 tetramer with Cj-DLP1; also called cj0412; CJ0412; source: E. coli BL21 (DE3), purified (amylose resin, TEV cleavage, gel filtration); not shown: MBP, N-terminal, cleaved

Holding throughout (settings): both partners purified
In test [1] the target is B2. Description: SEC-MALS; the two proteins mixed; 100 μl at 1–2 mg/ml on Superdex 200 10/300 GL in TEN 7.5 (20 mM Tris pH 7.5, 1 mM EDTA, 1 mM sodium azide), 1 mM DTT.
The target in the test “Cj-DLP2” is B3. Described as above.
Test [2] addresses B2. Nature of the test: crystal structure; Cj-DLP1/2 tetramer, apo (3.7 Å) and with GDP·AlF4¯ (3.9 Å), space group P2(1)2(1)2(1); sitting drop, 0.7–1.0 M succinate pH 7.0, 20 °C.

B1: Cj-DLP2_(∆trunk-tip) (natural protein)
chain: MQINLLNDFIKAYENTYSVSFDDSFKGRIQELCKELNEPFMHASYALENELKELVFSLDKNVNIAIIGQFSSGKSSLLNLILGRDCLPTGVVPVTFKPTFLRYAKEYFLRVEFEDGSDIITNIEKLAFYTDQRNEVKQAKSLHIFAPIPLLEKITLVDTPGLNANENDTLTTLDELKNIHGAIWLSLIDNAGKKSEEDAIKANLELLGENSICVLNQKDKLSAEELDNVLNYAKSVFLKYFNELIAISCKEAKDEQSYEKSNFQSLLDFLTQLDTTVLKEKFVKRKILNLCEILEDENQLFVGIFDRLLNQFQSYEKHLLLAYENFLKEIEILNHQILEQLKSISERMSKEFKKIKNELYKSFEEIKMKLKDFINILEREILLFKAEFSNIQKDHIFQSDKNFSELRAFCNASDEYFLKDFKELLFKSILELDLFFEKLNLKAFTNYENATKLSRVLNELNVYEFETLLINKPILTKIAKNFLEQSQNLIQEKNKFLDLKKAELQKRRAQILNVRESIKED
notes: Cj-DLP2 of Campylobacter jejuni (cj0412) with amino acids 348-401 and 509-542 within the trunk tip removed; also called Cj-DLP2 with the trunk tip removed; source: E. coli BL21 (DE3), expressed and purified as for native; not shown: MBP, N-terminal, cleaved
For B1, in the test with Cj-DLP1 [1], the binding result is given as “binds”.

With B2, the stoichiometry N (as a rule, the number of molecules, sites or subunits per partner or assembly) with Cj-DLP2 was 1 Cj-DLP1 per Cj-DLP2 (2:2 tetramer).

On to B3, for which, in the test with Cj-DLP1 [2], the binding result is “binds”.

B4: Cj-DLP1_(∆trunk) (natural protein)
chain: MKELFQKIWQNELQFLNFDAKFQDKSKLDTAECAIILSVNKDNYERYFLLKEFQELCKKIDLRVDIFSMQNAQICILNLFKSGFISKQDLLKALKILEKISKNTEIFDFILQEKVQSIDQKALFQNDFKELNTINLELQKLSFDENLKSRLQKTLEKFQNLEFNIAITGVMNAGKSSLLNALLKEDFLGVSNIPETANLTVLSYGKSEEAKIYFWDKKEWQNILESSHFNADLKEFIDKLDKSVNIEDFIKDKPLIQNIALCELKNFSSAKNKISALIKKIEIKSHLEFLKNNISIVDTPGLDDVVVQREIVTNEYLRESDFLIHLMNASQSLTQKDADFLVHCLLNSRLSKFLIVLTKADLLSKKDLEEVIVYTKESLKSRLVDLDENLVEKIDFLCVSAKMASDFYKGLASKESLQKSGMQEFENYLFNELYAGEKSKIALRAYKKELHLELKNILSEYEMQNRLIKLKNQDANILNSFEENLEKIEKLKQLEMGLLNAD
notes: Cj-DLP1 of Campylobacter jejuni (cj0411) with amino acids 470-695 (trunk) deleted; also called Cj-DLP1 with the trunk removed; source: E. coli BL21 (DE3), expressed and purified as for native
B4: the binding result in the test with Cj-DLP2 was “binds”.
